Consider three molecules from US20250034266A1.

Read-outs that look alike come from different tables or passages of the source.

In experiment [1] the target is human CCR8 (human) (UniProt P51685). In words: cell-based or functional assay.
The target of experiment [2] is cynomolgus CCR8 (cynomolgus) (UniProt G7NYJ2). The experiment in a line: FACS on HEK293-cynomolgus CCR8 cells.
Experiment [3] has as its target human CCR8 (human) (UniProt P51685). In words: cell-based or functional assay. This is another data set of the same source.
Experiment [4] shares this target. In words: FACS on HuT78 cells (endogenous human CCR8).
Experiment [5] addresses cynomolgus CCR8 (cynomolgus) (UniProt G7NYJ2). In words: FACS on cynomolgus CCR8 cells.
Experiment [6] deals with human CCR8 (human) (UniProt P51685). The experiment in a line: FACS, competition with AF647-human CCL1 on CHO-K1-human CCR8 cells. A general note: Flow cytometry measures light scatter and fluorescence of single cells or particles in a stream.
Experiment [7] addresses cynomolgus CCR8 (cynomolgus) (UniProt G7NYJ2). The experiment in a line: FACS on HEK293-cynomolgus CCR8 cells. This is another data set of the same source.
For a further experiment, the target named is T1, human CCR4 (human) (UniProt P51679).
T1 sequence (looked up): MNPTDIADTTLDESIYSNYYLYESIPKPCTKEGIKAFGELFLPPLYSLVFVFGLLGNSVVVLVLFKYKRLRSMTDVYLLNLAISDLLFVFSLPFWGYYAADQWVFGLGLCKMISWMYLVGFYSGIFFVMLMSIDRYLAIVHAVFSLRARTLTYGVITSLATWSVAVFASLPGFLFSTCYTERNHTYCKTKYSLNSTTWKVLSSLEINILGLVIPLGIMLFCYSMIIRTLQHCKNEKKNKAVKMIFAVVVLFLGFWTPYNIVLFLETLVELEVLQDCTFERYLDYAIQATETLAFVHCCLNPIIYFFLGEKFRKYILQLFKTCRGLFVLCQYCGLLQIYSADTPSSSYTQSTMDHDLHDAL
The experiment in a line: FACS on ExpiCHO-S-human CCR4 cells.

Experiment [8] deals with cynomolgus CCR8 (cynomolgus) (UniProt G7NYJ2). The experiment in a line: FACS on HEK293-cynomolgus CCR8 cells. The source holds these as a separate data set.
Experiment [9] has the same target. The experiment in a line: FACS on HEK293-cynomolgus CCR8 cells. This is another data set of the same source.
The target of experiment [10] is human CCR8 (human) (UniProt P51685). In words: FACS, competition with AF647-human CCL1 on CHO-K1-human CCR8 cells. The source holds these as a separate data set.
The target of experiment [11] is cynomolgus CCR8 (cynomolgus) (UniProt G7NYJ2). In words: FACS on HEK293-cynomolgus CCR8 cells. The source holds these as a separate data set.
For experiment [12], the target named is human CCR8 (human) (UniProt P51685). The experiment in a line: FACS, competition with AF647-human CCL1 on CHO-K1-human CCR8 cells. The source holds these as a separate data set.
Experiment [13] shares this target. The experiment in a line: FACS on HuT78 cells (endogenous human CCR8). This is another data set of the same source.
Experiment [14] shares this target. The experiment in a line: FACS, competition with AF647-human CCL1 on CHO-K1-human CCR8 cells. This is another data set of the same source.
Experiment [15] has the same target. The experiment in a line: FACS on CHO-K1-human CCR8 cells.
Experiment [16] shares this target. The experiment in a line: FACS on CHO-K1-human CCR8 cells. This is another data set of the same source.
For experiment [17] the target is unchanged. The experiment in a line: FACS on HEK293-human CCR8 cells.
Experiment [18] has the same target. In words: FACS on HEK293-human CCR8 cells. The source holds these as a separate data set.
For experiment [19] the target is unchanged. In words: FACS, competition with CCL1 on CHO-K1-human CCR8 cells.
For experiment [20] the target is unchanged. In words: FACS competition with 4 nM AF647-human CCL1 on human CCR8 cells.
Experiment [21] has the same target. The experiment in a line: FACS, competition with CCL1 on CHO-K1-human CCR8 cells. The source holds these as a separate data set.
In experiment [22] the target is human CCR8 tagged with ProLink (PK) (human) (UniProt P51685). In words: cell-based or functional assay.
Experiment [23] concerns the target human CCR8 (human) (UniProt P51685). The experiment in a line: FACS on HEK293-human CCR8 cells. This is another data set of the same source.
Experiment [24] shares this target. In words: FACS on CHO-K1-human CCR8 cells. This is another data set of the same source.
Experiment [25] has the same target. In words: FACS, competition with AF647-human CCL1 on CHO-K1-human CCR8 cells. The source holds these as a separate data set.
Experiment [26] has the same target. The experiment in a line: FACS on HEK293-human CCR8 cells. This is another data set of the same source.
The target is the same in experiment [27]. In words: cell-based or functional assay. This is another data set of the same source.
A further experiment concerns the target T2, human CCR1 (human) (UniProt P32246).
T2 sequence (looked up): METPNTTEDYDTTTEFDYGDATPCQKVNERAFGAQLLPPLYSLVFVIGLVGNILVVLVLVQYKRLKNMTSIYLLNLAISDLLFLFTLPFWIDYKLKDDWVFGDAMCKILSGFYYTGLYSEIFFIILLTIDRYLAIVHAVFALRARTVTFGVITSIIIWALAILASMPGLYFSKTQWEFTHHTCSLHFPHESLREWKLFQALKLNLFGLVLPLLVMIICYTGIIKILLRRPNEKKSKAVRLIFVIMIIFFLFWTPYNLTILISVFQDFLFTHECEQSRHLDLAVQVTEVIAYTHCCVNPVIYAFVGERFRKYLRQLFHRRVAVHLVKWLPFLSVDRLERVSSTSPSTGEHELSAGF
The experiment in a line: FACS on ExpiCHO-S-human CCR1 cells.

Experiment [28] concerns the target cynomolgus CCR8 (cynomolgus) (UniProt G7NYJ2). In words: FACS on HEK293-Cynomolgus CCR8 cells.
For experiment [29] the target is unchanged. The experiment in a line: FACS on ExpiCHO-S-cynomolgus CCR8 cells.
Experiment [30] addresses human CCR8 (human) (UniProt P51685). The experiment in a line: FACS on HEK293-human CCR8 cells. This is another data set of the same source.
Experiment [31] has the same target. In words: FACS, competition with AF647-human CCL1 on HEK293-human CCR8 cells.

What is called IC50 is the point on the concentration scale where inhibition reaches its midpoint. One may read the EC50 as the concentration needed to bring the measured effect to its halfway point. Low values mean greater potency, high ones weaker potency.

human CCR8 (human), sequence (P51685 whole entry): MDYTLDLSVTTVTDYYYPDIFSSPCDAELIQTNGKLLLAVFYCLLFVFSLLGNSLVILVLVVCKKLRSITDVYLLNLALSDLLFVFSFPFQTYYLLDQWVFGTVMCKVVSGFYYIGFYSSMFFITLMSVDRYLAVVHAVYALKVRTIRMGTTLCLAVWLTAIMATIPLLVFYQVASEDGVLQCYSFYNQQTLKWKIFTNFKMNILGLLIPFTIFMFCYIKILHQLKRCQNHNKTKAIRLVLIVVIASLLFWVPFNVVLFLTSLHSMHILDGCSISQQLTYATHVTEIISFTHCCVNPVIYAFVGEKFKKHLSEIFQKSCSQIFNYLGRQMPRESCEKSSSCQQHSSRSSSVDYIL
cynomolgus CCR8 (cynomolgus), sequence (G7NYJ2 entry or part of it): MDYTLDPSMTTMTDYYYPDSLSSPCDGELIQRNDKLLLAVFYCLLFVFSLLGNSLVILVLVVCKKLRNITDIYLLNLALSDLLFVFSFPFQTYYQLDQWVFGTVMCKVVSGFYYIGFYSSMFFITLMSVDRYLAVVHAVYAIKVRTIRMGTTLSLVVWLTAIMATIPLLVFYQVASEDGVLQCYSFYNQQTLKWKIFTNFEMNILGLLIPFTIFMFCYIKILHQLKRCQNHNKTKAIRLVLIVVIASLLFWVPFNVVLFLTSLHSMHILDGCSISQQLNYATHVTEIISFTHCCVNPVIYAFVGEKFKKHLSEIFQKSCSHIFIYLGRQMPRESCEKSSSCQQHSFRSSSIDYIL
human CCR8 tagged with ProLink (PK) (human), sequence (P51685 whole entry): as the sequence (P51685 whole entry) above

B1: CCL1 (CN-07, Almac) (ligand, UniProt P22362 24-96, looked up)
chain: KSMQVPFSRCCFSFAEQEIPLRAILCYRNTSSICSNEGLIFKLKRGKEACALDTVGWVQRHRKMLRHCPSKRK
B1 came in with a β-arrestin recruitment EC50 (CHO-K1 cells co-expressing PK-tagged human CCR8 and EA) in the experiment with human CCR8 (human) [1] of 0.288 nM.

B2: 433H monoclonal antibody (BD Biosciences, #644092) (antibody, from another filing, mouse IgG2a, V domains shown)
VH: EVQLVETGGGLVQPKGSLRLSCAASGFPFNTFAMNWVRQAPGKGLEWLARIRSKSNNYATYYADSVKDRFTISRDDSRRMLYLLMNNVKFEDTAIYYCVRGKENNYGYAMDYWGQGTSVTVSS
VL: DIVMTQAAPSVPVTPGESVSISCRSSQSLLHSNGNTYLYWFLQRPGQSPQLLIYRMSNLASGVPDRFSGSGSGTAFTLRISRVEAEDVGVYYCMQHLEYPFTFGIGTKLELKR
As for B2, the Max MFI in experiment [2] is 2340 MFI; in the experiment with human CCR8 (human) [4] it was 31900 MFI; in experiment [7], 1240 MFI; with human CCR4 (human) it was 6.1 MFI; in experiment [8] it was 802 MFI; in experiment [9], 1.72e+06 MFI. Also, the Max MFI came out at 648000 MFI in experiment [11]; 60800 MFI with human CCR8 (human) [13]; 215000 MFI with human CCR8 (human) [15]; 4920 MFI with human CCR8 (human) [16]; 2810 MFI with human CCR8 (human) [17]; 2020 MFI with human CCR8 (human) [18]. The Max MFI was found to be 5940 MFI with human CCR8 (human) [23]; 814000 MFI in the experiment with human CCR8 (human) [24]; 2780 MFI with human CCR8 (human) [26]; 133 MFI with human CCR1 (human); 2010 MFI in experiment [28]; 27 MFI in experiment [29]. The Max MFI with human CCR8 (human) [30] came out at 3890 MFI. The results for the IC50, inhibition of CCL1 induced β-Arrestin recruitment with human CCR8 (human) [3], with human CCR8 (human) [1] and in the experiment with human CCR8 (human) [27] were 0.89 nM, 1.06 nM and 0.23 nM, respectively. In addition, the Max Inhibition (%), CCL1 induced β-Arrestin recruitment in the experiment with human CCR8 (human) [3] was found to be 92.5%; in the experiment with human CCR8 (human) [1], 89.9%; with human CCR8 (human) [27], 92.6%. The Binding Ratio (GFP + MFI)/(GFP - MFI) turned out to be 7.9 in experiment [5] and 158 with human CCR8 (human) [16]. In addition, the IC50 was determined as 0.198 nM with human CCR8 (human) [6]; 0.193 nM with human CCR8 (human) [10]; 0.243 nM with human CCR8 (human) [12]; 0.171 nM with human CCR8 (human) [14]; 0.114 nM with human CCR8 (human) [19]; 0.178 nM with human CCR8 (human) [21]. Besides, the figures for the IC50 with human CCR8 (human) [25] and with human CCR8 (human) [31] were 0.143 nM and 0.335 nM, respectively. Besides, the Max Inhibition (%) came to 99.6% with human CCR8 (human) [6]; 99.1% in the experiment with human CCR8 (human) [10]; 96% with human CCR8 (human) [12]; 98.7% with human CCR8 (human) [14]; 100% with human CCR8 (human) [19]; 99.6% with human CCR8 (human) [21]. In addition, the Max Inhibition (%) is 99.8% with human CCR8 (human) [25] and 98.8% in the experiment with human CCR8 (human) [31]. Further, the EC50 in experiment [8] is 9.08 nM; in [9] it was 19.4 nM; with human CCR8 (human) [13] it was 0.123 nM; with human CCR8 (human) [15] it was 0.0699 nM; in the experiment with human CCR8 (human) [16], 0.124 nM; in the experiment with human CCR8 (human) [17] it was 0.119 nM. In addition, the concentration giving a half-maximal response (EC50) with human CCR8 (human) [18] is 0.117 nM; with human CCR8 (human) [23], 0.215 nM; with human CCR8 (human) [24] it was 0.0823 nM; with human CCR8 (human) [26], 0.197 nM; with human CCR8 (human) [30] it was 0.0878 nM. In the experiment with human CCR8 (human) [20], the Inhibition Rate (%) came to 100%. Besides, the IC50, inhibition of CCL1 induced β-Arrestin recruitment, CHO-K1-human CCR8 β-Arrestin cells in [22] is 6.54 nM. The Max Inhibition (%), CCL1 induced β-Arrestin recruitment, CHO-K1-human CCR8 β-Arrestin cells in experiment [22] came out at 80.3%. In addition, in the experiment with human CCR8 (human) [1], the IC50, blocking of CCL1 induced cell migration was 1.25 nM. The IC50, blocking of cell migration induced by CCL1 with human CCR8 (human) [1] turned out to be 0.278 nM. Moreover, the Max Inhibition (%), cell migration induced by CCL1 in the experiment with human CCR8 (human) [1] was found to be 104%. Besides, in the experiment with human CCR8 (human) [1], the Max inhibition (%), CCL1 induced cell migration is 117%.

B3: Hu149-11G1x (antibody, V domains shown, not shown: a dimerising Fc or GST)
VH: EVQLVESGGGLVQPGGSLKLSCAASGFTFNTYAMNWVRQASGKGLEWVGRIRSKSNFYATAYAASVKGRFTISRDDSKNTAYLQMNSLKTEDTAVYYCTRGREYGSSYAMDYWGQGTLVTVSS
VL: DIVMTQSPLSLPVTPGEPASISCRSSKSLLHSNANTYLYWFLQKPGQSPQLLIYRMSNLASGVPDRFSGSGSGTDFTLKISRVEAEDVGVYYCMQHLEYPLTFGGGTKVELK
In the experiment with human CCR8 (human) [1], B3 returned an EC50, ADCC reporter, F variant CD16a/NFAT-Jurkat, target CHO-K1-human CCR8 cells of 0.00351 nM; an EC50, ADCC reporter, F variant CD16a/NFAT-Jurkat, target HuT78 cells of 0.0046 nM; an EC50, ADCC reporter, V variant CD16a/NFAT-Jurkat, target CHO-K1-human CCR8 cells of 0.00487 nM; an EC50, ADCC reporter, V variant CD16a/NFAT-Jurkat, target HuT78 cells of 0.00559 nM. In the experiment with human CCR8 (human) [1], the EC50, ADCC with human PBMCs, target CHO-K1-human CCR8 cells came to 0.000384 nM; the Max (RLU), ADCC reporter, F variant CD16a/NFAT-Jurkat, target CHO-K1-human CCR8 cells is 8.34e+06 RLU; the Max (RLU), ADCC reporter, F variant CD16a/NFAT-Jurkat, target HuT78 cells worked out at 1.51e+07 RLU; the Max (RLU), ADCC reporter, V variant CD16a/NFAT-Jurkat, target CHO-K1-human CCR8 cells was determined as 4.09e+06 RLU. In the experiment with human CCR8 (human) [1], this molecule showed a Max (RLU), ADCC reporter, V variant CD16a/NFAT-Jurkat, target HuT78 cells of 9.06e+06 RLU and a Max specific lysis (%), ADCC with human PBMCs, target CHO-K1-human CCR8 cells of 44.2%.
